Assay results from PMC3229523, “Identification of Lactoferricin B Intracellular Targets Using an Escherichia coli Proteome Chip” (PLoS ONE, 2011).
Ends that are not written are not given here. * marks the point of attachment. Biotin = O=C1N[C@H]2[C@H](CS[C@H]2CCCCC(=O)*)N1

Assays:
Test in all cases: peptide or protein array; E. coli proteome chip: purified His-tagged proteins printed in duplicate on Fullmoon slides, blocked with 1% BSA; 10 nM N-terminal biotinylated LfcinB with 1% BSA, room temperature, 1 h; detected with DyLight 649-labeled streptavidin, ratio to DyLight 549-labeled anti-His antibody; ProCAT normalisation, local cut-off; triplicate chips
Settings in all cases: both partners purified
YheH = target: T1, YheH (E. coli K-12, UniProt P45760 7-125)
T1 construct: YheH, E. coli K-12
T1 sequence (looked up): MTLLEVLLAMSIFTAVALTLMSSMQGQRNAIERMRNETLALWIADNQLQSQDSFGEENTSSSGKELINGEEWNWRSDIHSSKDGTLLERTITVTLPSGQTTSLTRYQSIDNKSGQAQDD

YcaO = target: T2, YcaO (E. coli K-12, UniProt P75838 1-586)
T2 construct: YcaO, E. coli K-12
T2 sequence (P75838 whole entry): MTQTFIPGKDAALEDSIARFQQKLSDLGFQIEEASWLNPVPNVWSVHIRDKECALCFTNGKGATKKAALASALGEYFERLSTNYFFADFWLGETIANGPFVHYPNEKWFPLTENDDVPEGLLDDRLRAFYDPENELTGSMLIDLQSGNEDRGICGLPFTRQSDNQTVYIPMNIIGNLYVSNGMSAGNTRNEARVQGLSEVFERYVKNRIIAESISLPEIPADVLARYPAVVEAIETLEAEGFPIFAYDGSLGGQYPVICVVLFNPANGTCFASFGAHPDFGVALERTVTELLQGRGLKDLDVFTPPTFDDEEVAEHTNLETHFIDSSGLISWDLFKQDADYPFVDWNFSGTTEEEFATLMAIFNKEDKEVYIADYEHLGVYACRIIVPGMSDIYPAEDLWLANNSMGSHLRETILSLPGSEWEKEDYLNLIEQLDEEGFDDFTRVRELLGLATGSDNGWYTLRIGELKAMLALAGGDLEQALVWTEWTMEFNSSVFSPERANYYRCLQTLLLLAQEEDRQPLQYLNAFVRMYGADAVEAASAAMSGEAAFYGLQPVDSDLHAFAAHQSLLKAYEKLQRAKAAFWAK

YchA = target: T3, YchA (E. coli K-12, UniProt P0AGM5 1-269)
T3 construct: YchA, E. coli K-12
T3 sequence (looked up): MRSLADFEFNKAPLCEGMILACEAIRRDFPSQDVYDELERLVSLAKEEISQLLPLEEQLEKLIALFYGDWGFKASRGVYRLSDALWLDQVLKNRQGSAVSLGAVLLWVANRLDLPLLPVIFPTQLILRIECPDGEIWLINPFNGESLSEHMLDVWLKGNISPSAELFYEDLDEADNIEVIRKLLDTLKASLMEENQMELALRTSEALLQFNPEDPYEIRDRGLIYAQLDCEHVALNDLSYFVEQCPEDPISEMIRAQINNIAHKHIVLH

YciW = target: T4, YciW (E. coli K-12, UniProt P76035 1-375)
T4 construct: YciW, E. coli K-12
T4 sequence (looked up): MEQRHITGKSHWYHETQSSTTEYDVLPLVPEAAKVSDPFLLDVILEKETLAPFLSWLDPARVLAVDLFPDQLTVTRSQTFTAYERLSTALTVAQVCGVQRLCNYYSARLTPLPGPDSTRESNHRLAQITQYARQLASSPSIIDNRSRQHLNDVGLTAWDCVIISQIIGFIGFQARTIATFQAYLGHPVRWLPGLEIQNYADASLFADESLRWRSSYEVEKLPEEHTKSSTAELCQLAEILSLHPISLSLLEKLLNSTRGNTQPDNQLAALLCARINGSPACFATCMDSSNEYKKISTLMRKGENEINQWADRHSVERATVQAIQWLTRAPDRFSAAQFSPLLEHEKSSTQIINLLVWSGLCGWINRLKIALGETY

Hha = target: T5, Hha (E. coli K-12, UniProt P0ACE3 1-72)
T5 construct: Hha, E. coli K-12
T5 sequence (looked up): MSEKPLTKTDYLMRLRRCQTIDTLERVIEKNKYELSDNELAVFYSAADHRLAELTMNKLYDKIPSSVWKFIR

Measured: binding result

B1: N-terminal biotinylated Lactoferricin B (peptide, UniProt P24627 36-60, looked up)
peptide: Biotin-FKCRRWQWRMKKLGAPSITCVRRAF
modifications: ends and bridges not checked
notes: lactoferricin B (LfcinB), cationic antimicrobial peptide of 25 amino acids; also called biotinylated LfcinB; biotin-labeled LfcinB; source: bought: Kelowna Inc
binds: all assays above
